Assay results as given in patent US20160250177A1, “MODIFIED DOCETAXEL LIPOSOME FORMULATIONS AND USES THEREOF” (MALLINCKRODT LLC, priority 2015, published 2016).

Details: human, in vivo

Substance: distearoyl-phosphatidylethanolamine-N-[methoxy(polyethene glycol)-2000] [DSPE(PEG-2000)]
- CL (mean): 0.025 L/h/m^2
- Vss (mean): 1.409 L/m^2
- dose proportionality for Cmax and AUCinf: demonstrate dose proportionality
